Our source for the self-cleavage values is the RNAGym collection of RNA variant scans (doi:10.7554/elife.80360).

First the molecules themselves.
B1: Hairpin Ribozyme (parent)
chain: GUCCUCUUUCACGUGCGCGUGAAAGAGAGAAGUGAACCAGAGAAACACACGUUGUGGUAUAUUACCUGGUA

The variants in the data set derive from B1. The experiment in a line: self-cleavage, relative activity (ratio to wild type); higher = more cleavage; co-transcriptional.
Regarding A30C G68C, the self-cleavage is 0.172.
On to A30C G68U, for which the self-cleavage came to 0.141.
For A30C U60A, the self-cleavage stood at 0.12.
For G29U A30G the value was 0.189; for G29U A30U, 0.176; for A30U G56C, 0.15.
Regarding A28U U33G, the self-cleavage stood at 0.104.
For G29A G54U the value was 0.214.
Turning to G29A G54C, the self-cleavage stood at 0.0856.
As for G29U U62G, the self-cleavage came out at 0.0909.
Consider G29A G51C, for which the self-cleavage came out at 0.216.
For G29C U58A the value was 0.213; for G29C U58G, 0.077; for A28G A35U, 1.13.
For G29U G42C the value was 0.115; for G29U G42A, 0.0859.
For A28U U70C the value was 0.394; for A30G U60A, 0.125.
A30G U60G: the self-cleavage amounted to 0.158.
For G29U U67A the value was 0.0852; for G29U U67G, 0.132.
In the case of G29U G51C, the self-cleavage is 0.167.
Regarding G29A C50U, the self-cleavage was found to be 0.178.
For G29A A64G the value was 0.0994.
For G29C C48U the value was 0.203; for G29C G57U, 0.142; for G29C G57A, 0.215.
For A30G A71G the value was 0.109; for A28G A59U, 0.32; for G29C A31C, 0.17.
On to A30U U63C, for which the self-cleavage was 0.0881.
For A30C A31C the value was 0.159.
For A30C A31G the value was 0.141; for G29A G57A, 0.141.
For G29A G57U the value was 0.0366; for A30G G34U, 0.932; for A28U U62G, 0.0982.
Regarding A28U U62C, the self-cleavage amounted to 0.272.
For A28U U62A, the self-cleavage was found to be 0.0878.
For G29A A41U the value was 0.156; for A28U A31G, 0.325.
For A28U U60C the value was 0.871; for G29C U63C, 0.094.
For G29C G68A the value was 0.0962; for G29U U33A, 0.169.
Consider G29U U33C, for which the self-cleavage is 0.165.
For A28G G42A the value was 0.21.
For A28U C50G, the self-cleavage was 0.173.
For A28U C50A the value was 0.213; for G29U A64U, 0.14.
With G29A U62A, the self-cleavage was 0.123.
Regarding A28U A71C, the self-cleavage is 1.1.
For A28U A71U the value was 0.371; for A28U G32C, 0.175.
For A28U G32A the value was 0.234; for A30U C50A, 0.221.
Turning to A30U C50U, the self-cleavage was 0.0896.
For the variant G29U G54U, the self-cleavage was 0.207.
For G29A C66A the value was 0.139; for A30U C65A, 0.14; for G29U A61U, 0.0881.
For A28U G42U the value was 0.218.
For A28U G42C the value was 0.0977; for A30C G54U, 0.0809; for A28G G29C, 0.12.
As to G29A A39G, the self-cleavage was 0.128.
On to G29A A39C, for which the self-cleavage stood at 0.108.
Regarding A28G C65G, the self-cleavage turned out to be 0.409.
For A28G C65A the value was 0.884.
Take A28C U63A: the self-cleavage was 0.0573.
Consider G29A A59U, for which the self-cleavage turned out to be 0.162.
For A28G A39G, the self-cleavage is 0.357.
For G29C A44G the value was 0.243; for G29C C50A, 0.167; for G29U A49U, 0.0858.
Consider A30U A41C, for which the self-cleavage was found to be 0.256.
Turning to A30U U33C, the self-cleavage was 0.196.
For A28U C46G, the self-cleavage turned out to be 0.109.
For A28U C46U the value was 0.046; for A28C U67C, 0.146; for A28U C48A, 0.131.
For A28U C48U the value was 0.251; for G29C G32C, 0.128.
For G29C G32U the value was 0.121; for G29C G32A, 0.167.
Take A30C A43G: the self-cleavage is 0.
For G29U G32C the value was 0.105; for G29U A71U, 0.185.
G29U A71G: the self-cleavage was determined as 0.171.
For G29U A47U, the self-cleavage is 0.169.
For the variant G29U A47C, the self-cleavage amounted to 0.0936.
With A28U A64C, the self-cleavage turned out to be 0.278.
For A28U A64G the value was 0.167; for A28U A64U, 0.0714.
For A30U A31G the value was 0.143; for A30U A47G, 0.0659.
For A28G A45U the value was 0.201; for G29A A49U, 0.122; for A28G U67A, 0.31.
Turning to A30G G56A, the self-cleavage was found to be 0.0987.
For A30G G56U the value was 0.133; for A30G C66G, 0.184.
For A30G C66A the value was 0.192; for A30U U58G, 0.155; for A30U U58C, 0.107.
Turning to G29A A35C, the self-cleavage came out at 0.187.
For G29A A35G the value was 0.147; for G29U U70A, 0.21; for A28G G68A, 0.349.
For G29U G34A, the self-cleavage came to 0.0892.
For A30C G69U, the self-cleavage was determined as 0.124.
For A28U A41C the value was 1.13; for G29C U60G, 0.201.
For G29A U55C the value was 0.163; for A30G C37U, 0.136; for A30G C46A, 0.202.
For G29C C46G the value was 0.0799; for G29C A43C, 0.125; for G29C A59U, 0.207.
On to A28G G54A, for which the self-cleavage turned out to be 0.646.
For A30G A44C the value was 0.169.
As to A30G A44G, the self-cleavage came to 0.108.
For A28U U63G the value was 0.105.
For G29C A41G the value was 0.142; for G29C A41C, 0.0573; for G29C A35C, 0.104.
For G29C A35U the value was 0.0473.
On to A28G U58A, for which the self-cleavage was determined as 0.653.
As to A30C A71C, the self-cleavage was found to be 0.592.
For A30C A71G the value was 0.247; for G29C G42U, 0.11.
For G29C G42A the value was 0.13.
A30G G42C: the self-cleavage is 0.169.
A30G G42A: the self-cleavage was determined as 0.113.
For G29U U63A the value was 0.146; for G29C G69A, 0.0986; for G29C G69U, 0.119.
For G29C U55C the value was 0.127.
With G29U U52A, the self-cleavage was found to be 0.124.
For A28G G69C the value was 0.46.
For A31C A41U the value was 0.109; for A31C A41G, 0.102; for G29C A49C, 0.159.
In the case of A30C A47C, the self-cleavage came out at 0.156.
For the variant A30C A36G, the self-cleavage was found to be 0.223.
Regarding A30C A36C, the self-cleavage came to 0.164.
For A30C G34A the value was 0.0999; for A28U A36C, 0.286; for A30G U67C, 0.119.
Turning to A30G U67G, the self-cleavage amounted to 0.0921.
A30G A64C: the self-cleavage stood at 0.0804.
As for A30G A64G, the self-cleavage was 0.141.
For A30G A64U the value was 0.159; for A30C C48A, 0.103.
Consider A28U G34A, for which the self-cleavage was determined as 0.873.
For G29U C46G the value was 0.182; for G29C A61C, 0.206; for A30C U62G, 0.134.
As for G29U G68C, the self-cleavage is 0.137.
For A28C U70A the value was 0.468; for A30U U60C, 0.306; for A30U U60G, 0.0766.
For A30G A45U the value was 0.177; for A28G C37G, 0.36.
For A28G C37A the value was 0.504; for A30U A59C, 0.153; for G29A G56C, 0.166.
